From PMC5389638 (Nucleic Acids Research, 2016)

Target: the molecule itself
Test: AFM volume analysis

B1: 6His–Ver (natural protein, Drosophila, UniProt Q9VTZ2 1-214, looked up)
chain: MDFNQSFEDIESQLDNFVIRKNQQSEKSTGKCGPEVHDNVPLTISQIERATQDPENENVFITDDVHPIHFCTCIIYAFVTGNGTHNESFMKFMIDDGTGSLEASITKKPFNGRVISSLYSEASSLASSEAYKSIAVSMMRLLQVSMEYIDPTRISRGHSLFLRGRPNRFRGKMGLDAFQFFIDSGRSRNMEIGFVDYLTDWQRRHKTMQNTTNK
- stoichiometry N: 2
